# Data taken from IntAct's records for PubMed 31704776.
# B1: Meiotic recombination protein REC114 (Homo sapiens), Q7Z4M0 (parent)
# chain: MAEAGKVPLSLGLTGGEAAEWPLQRYARCIPSNTRDPPGPCLEAGTAPCPTWKVFDSNEESGYLVLTIVISGHFFIFQGQTLLEGFSLIGSKDWLKIVRRVDCLLFGTTIKDKSRLFRVQFSGESKEQALEHCCSCVQKLAQYITVQVPDGNIQELQLIPGPPRATESQGKDSAKSVPRQPGSHQHSEQQQVCVTAGTGAPDGRTSLTQLAQTLLASEELPHVYEQSAWGAEELGPFLRLCLMDQNFPAFVEEVEKELKKLAGLRN
# partner: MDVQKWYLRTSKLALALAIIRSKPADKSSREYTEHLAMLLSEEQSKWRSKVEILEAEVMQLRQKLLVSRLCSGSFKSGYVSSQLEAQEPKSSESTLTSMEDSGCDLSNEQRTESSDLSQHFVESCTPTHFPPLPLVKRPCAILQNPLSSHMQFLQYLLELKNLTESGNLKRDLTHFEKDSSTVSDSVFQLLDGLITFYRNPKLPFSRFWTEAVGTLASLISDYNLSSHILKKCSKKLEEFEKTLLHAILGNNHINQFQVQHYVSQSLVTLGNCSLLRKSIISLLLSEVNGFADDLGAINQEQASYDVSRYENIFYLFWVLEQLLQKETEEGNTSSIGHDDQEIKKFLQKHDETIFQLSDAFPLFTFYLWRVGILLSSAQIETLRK
# Variants of: B1
# Conditions: with mei4_human MEI4, A8MW99
row,Variant,effect of a mutation on the interaction
1,MAEAGKVPLSLGLTGGEAAEWPLQRYARCIPSNTRDPPGPCLEAGTAPCPTWKVFDSNEESGYLVLTIVISGHFFIFQGQTLLEGFSLIGSKDWLKIVRRVDCLLFGTTIKDKSRLFRVQFSGESKEQALEHGCSCVQKLAQYITVQVPDGNIQELQLIPGPPRATESQGKDSAKSVPRQPGSHQHSEQQQVCVTAGTGAPDGRTSLTQLAQTLLASEELPHVYEQSAWGAEELGPFLRLCLMDQNFPAFVEEVEKELKKLAGLRN [C133G],with no effect
